Experimental findings from the Human Domainome abundance scans (Beltran et al. 2025) are described below.

± gives the uncertainty stated by the source.

The data set in a line: abundance fitness (aPCA) (normalised: wild type 0, dead -1); higher = more abundant; growth selection in yeast, the domain comes from the species named. As to conditions: Homo sapiens.
In turn, “SAFB-like transcription modulator V27G, Q9NWH9” returned an abundance fitness of -0.405 ± 0.088.

In turn, “SAFB-like transcription modulator V27I, Q9NWH9” displayed an abundance fitness of -0.011 ± 0.054.

As to “SAFB-like transcription modulator V27K, Q9NWH9”, the abundance fitness is -0.533 ± 0.27.

In the case of “SAFB-like transcription modulator V27L, Q9NWH9”, the abundance fitness was -0.21 ± 0.082.

“SAFB-like transcription modulator V27M, Q9NWH9” gave an abundance fitness of 0.158 ± 0.099.

In turn, “SAFB-like transcription modulator V27N, Q9NWH9” displayed an abundance fitness of -0.453 ± 0.16.

In turn, “SAFB-like transcription modulator V27Q, Q9NWH9” returned an abundance fitness of -0.426 ± 0.15.

“SAFB-like transcription modulator V27R, Q9NWH9” registered an abundance fitness of -0.241 ± 0.07.

“SAFB-like transcription modulator V27S, Q9NWH9” displayed an abundance fitness of -0.417 ± 0.097.

For the substance “SAFB-like transcription modulator V27T, Q9NWH9”, the abundance fitness was found to be 0.086 ± 0.092.

For the substance “SAFB-like transcription modulator V27W, Q9NWH9”, the abundance fitness was -0.396 ± 0.09.

“SAFB-like transcription modulator V27Y, Q9NWH9” came in with an abundance fitness of -0.29 ± 0.24.

Take “SAFB-like transcription modulator V44A, Q9NWH9”: the abundance fitness was found to be 0.064 ± 0.039.

“SAFB-like transcription modulator V44C, Q9NWH9”: the abundance fitness amounted to 0.036 ± 0.076.

“SAFB-like transcription modulator V44D, Q9NWH9” had an abundance fitness of 0.055 ± 0.072.

Substance “SAFB-like transcription modulator V44E, Q9NWH9” displayed an abundance fitness of -0.124 ± 0.075.

Substance “SAFB-like transcription modulator V44F, Q9NWH9” came in with an abundance fitness of 0.002 ± 0.075.

“SAFB-like transcription modulator V44H, Q9NWH9” gave an abundance fitness of 0.126 ± 0.089.

The substance “SAFB-like transcription modulator V44I, Q9NWH9” showed an abundance fitness of -0.057 ± 0.054.

In turn, “SAFB-like transcription modulator V44K, Q9NWH9” returned an abundance fitness of -0.233 ± 0.088.

The substance “SAFB-like transcription modulator V44L, Q9NWH9” returned an abundance fitness of -0.122 ± 0.038.

For “SAFB-like transcription modulator V44M, Q9NWH9”, the abundance fitness was -0.092 ± 0.058.

For “SAFB-like transcription modulator V44N, Q9NWH9”, the abundance fitness was 0.048 ± 0.058.

Regarding “SAFB-like transcription modulator V44P, Q9NWH9”, the abundance fitness stood at 0.014 ± 0.049.

The substance “SAFB-like transcription modulator V44Q, Q9NWH9” displayed an abundance fitness of -0.134 ± 0.078.

In the case of “SAFB-like transcription modulator V44R, Q9NWH9”, the abundance fitness was -0.054 ± 0.034.

As to “SAFB-like transcription modulator V44S, Q9NWH9”, the abundance fitness is 0.036 ± 0.051.

As for “SAFB-like transcription modulator V44T, Q9NWH9”, the abundance fitness is -0.008 ± 0.06.

Take “SAFB-like transcription modulator V44W, Q9NWH9”: the abundance fitness was -0.358 ± 0.055.

As to “SAFB-like transcription modulator V44Y, Q9NWH9”, the abundance fitness is -0.258 ± 0.081.

“SAFB-like transcription modulator V47A, Q9NWH9” gave an abundance fitness of -0.025 ± 0.058.

For the substance “SAFB-like transcription modulator V47C, Q9NWH9”, the abundance fitness was -0.074 ± 0.037.

With “SAFB-like transcription modulator V47D, Q9NWH9”, the abundance fitness was -0.001 ± 0.065.

With “SAFB-like transcription modulator V47E, Q9NWH9”, the abundance fitness amounted to 0.022 ± 0.068.

For the substance “SAFB-like transcription modulator V47F, Q9NWH9”, the abundance fitness is -0.447 ± 0.044.

Substance “SAFB-like transcription modulator V47G, Q9NWH9” showed an abundance fitness of -0.28 ± 0.038.

As for “SAFB-like transcription modulator V47H, Q9NWH9”, the abundance fitness is -0.329 ± 0.081.

In the case of “SAFB-like transcription modulator V47I, Q9NWH9”, the abundance fitness was 0.051 ± 0.066.

“SAFB-like transcription modulator V47K, Q9NWH9” yielded an abundance fitness of 0.003 ± 0.063.

As to “SAFB-like transcription modulator V47L, Q9NWH9”, the abundance fitness is -0.125 ± 0.038.

“SAFB-like transcription modulator V47M, Q9NWH9” had an abundance fitness of 0.013 ± 0.061.

“SAFB-like transcription modulator V47N, Q9NWH9” came in with an abundance fitness of -0.079 ± 0.045.

For the substance “SAFB-like transcription modulator V47P, Q9NWH9”, the abundance fitness is -0.585 ± 0.056.

Substance “SAFB-like transcription modulator V47Q, Q9NWH9” gave an abundance fitness of 0.019 ± 0.047.

For “SAFB-like transcription modulator V47R, Q9NWH9”, the abundance fitness was -0.207 ± 0.043.

“SAFB-like transcription modulator V47S, Q9NWH9” returned an abundance fitness of -0.152 ± 0.048.

In turn, “SAFB-like transcription modulator V47T, Q9NWH9” came in with an abundance fitness of 0.089 ± 0.064.

As to “SAFB-like transcription modulator V47Y, Q9NWH9”, the abundance fitness was -0.525 ± 0.044.
